From paper PMC8324842
Like-named read-outs stand apart in the source and are kept apart here.

Legend:
[1] = biological target: dimAβ (dimeric Aβ variant: two Aβ40 units linked in one polypeptide chain through a flexible glycine-serine-rich linker) (UniProt P05067); assay: ThT fluorescence aggregation kinetics; dimAβ at pH 7.4, concentration series, 37 °C, 150 mM NaCl, 1 µM ThT, microplate; lag-free oligomerization phase above the critical oligomer concentration
[2] = biological target: dimAβ (dimeric Aβ variant: two Aβ40 units linked in one polypeptide chain through a flexible glycine-serine-rich linker) (UniProt P05067); assay: as above; remark: listed apart in the source
[3] = biological target: dimAβ (dimeric Aβ variant: two Aβ40 units linked in one polypeptide chain through a flexible glycine-serine-rich linker) (UniProt P05067); assay: ThT fluorescence aggregation kinetics; dimAβ at pH 5.6, concentrations down to 0.4 µM, 37 °C, 150 mM NaCl

What does the source list for “dimAβ (dimeric Aβ variant: two Aβ40 units linked in one polypeptide chain through a flexible glycine-serine-rich linker) (from UniProt P05067 672-711; P05067 672-711)”?
critical oligomer concentration (COC) [1]: 1 µM; critical oligomer concentration (COC) [2]: 1.5 µM; critical oligomer concentration (COC) at pH 5.6 [3]: < 0.4 µM
